Assay results taken from publication PMC5397179.
pKd: −log10 of the molar value.

Tests used:
RNAP subunit α = assay: pulldown quantified by mass spectrometry; conditions: parent: est. 6.2; read off a plot
RNAP subunit β' = assay: pulldown quantified by mass spectrometry; conditions: parent: est. 12; read off a plot
RNAP subunit β = assay: pulldown quantified by mass spectrometry; conditions: parent: est. 16; read off a plot
RNAP subunit δ = assay: pulldown quantified by mass spectrometry; conditions: parent: est. 12; read off a plot
RNAP subunit ω = assay: pulldown quantified by mass spectrometry; conditions: parent: est. 13; read off a plot
[1] = test system: PcrA-sCt (C-terminal Tudor-like domain) (Geobacillus stearothermophilus); assay: EMSA; conditions: no binding detected up to 5 uM; 2.5 mM Mg2+; EMSA: 50 nM (so in the source) HEPES-KOH pH 7.5, 100 mM KCl, 2.5 mM MgCl2, 0.1 mg/mL BSA, 1 mM (reagent truncated in material); 20 nM DNA; TBE-PAGE; temperature not …

Row | other: Relative Ion Score (RNAP subunit α) | other: Relative Ion Score (RNAP subunit β') | other: Relative Ion Score (RNAP subunit β) | other: Relative Ion Score (RNAP subunit δ) | other: Relative Ion Score (RNAP subunit ω) | Substance | pKd [1]
1 | 2.7 | 3.6 | 4.5 | 3.1 | 4.7 | Biotinylated full length PcrA (Geobacillus stearothermophilus), wild type (from UniProt P56255) K712A | 
2 | 2.7 | 2.8 | 4.1 | 3.6 | 2.6 | Biotinylated full length PcrA (Geobacillus stearothermophilus), wild type (from UniProt P56255) L714A | 
3 |  |  |  |  |  | 147 base ssDNA oligonucleotide | < 5.30
4 |  |  |  |  |  | 147 bp dsDNA | < 5.30
